Source: patent US20210309978A1, “POLYNUCLEOTIDE SEQUENCE ENCODING A LOCAL SOURCED NOVEL ESTERASE” (ISTANBUL TEKNIK UNIVERSITESI, priority 2018, published 2021)
Where “and” joins values, the source holds several entries; their conditions need not be identical. Equal entries are not always repeated.

Assays:
esterase enzyme [1] = assay: Effect of sodium chloride on enzyme activity; format: biochemical, microflora of Ac1göl (Aci Lake)
Method: (§1) 6. Standard activity test: Activity has been measured based on the pNP measurement that is obtained by the hydrolysis of the paranitfrophenol (pNP) esters by the enzyme (Winkler and Stuckmann, 1979). The final concentration of the enzyme and substrate have been 1 μM and 1 mM respectively and absorbance measurements have been taken at 410 nm. The activity has been calculated by means of the below formula and one unit of activity has been defined as the enzyme amount which produces 1 μmol product in 1 minute.
(§2) Activity (U/L)=[(ΔAbs/t)/(ε*d)]*106*Vt/Vs • ΔAbs=Absorbance change; t=time (minute); ε=extinction coefficient (M−1 cm−1); d=light path (cm); Vt=total reaction volume; Vs=enzyme volume used in reaction.
(§3) The effect of sodium chloride on the activity (5%, 10%, 15%, 20% and 25% NaCl) and the stability (10%, 15%, 20% and 25% NaCl) of the enzyme has been determined similarly. The enzyme has been incubated in a buffer solution comprising sodium chloride at the defined amounts for 24 hours during stability tests.

esterase enzyme [2] = assay: Effect of sodium chloride on enzyme stability (24 hours incubation); format: biochemical, microflora of Ac1göl (Aci Lake)
Method: as §1, §2, §3

[3] = Effect of temperature on enzyme activity (standard pNP ester activity test); format: biochemical, microflora of Ac1göl (Aci Lake)
Method: as §1, §2
(§4) The reaction has been carried out under different temperatures (5° C.-70° C.) in order to determine the optimum temperature in which the enzyme works efficiently, and the activity has been measured. In order to determine the thermal stability of the enzyme, the enzyme has been incubated for 20 minutes between 25° C.-80° C. temperature and the remaining activity has been measured according to standard tests.

[4] = format: biochemical, microflora of Ac1göl (Aci Lake)
Method: as §1, §2, §4

[5] = Effect of pH on enzyme activity; format: biochemical, microflora of Ac1göl (Aci Lake)
Method: as §1, §2
(§5) 8. Measuring the activity and stability of the enzyme under different conditions: Reactions have been carried out in buffer solutions (50 mM citrate/phosphate buffer, pH 6; 50 mM Tris-HCl buffer, pH 7, 8 and 8.5; 50 mM glycine-NaOH buffer, pH 9, 9.5 and 10) having different pH values in order to determine the optimum pH value in which the enzyme works. Moreover, in order to measure the pH stability of the enzyme, the enzyme has been incubated for 24 hours before reaction in these buffer solutions and the activity value remaining at the end of the incubation has been calculated.

[6] = format: biochemical, microflora of Ac1göl (Aci Lake); remark: listed apart in the source
Method: as §1, §2, §5

Molecule: [Cl-].[Na+] [sodium chloride]
- The effect of sodium chloride on activity, Activity (%) (esterase enzyme [1]; Concentration 1 %): 100 ± 1.9%
- The effect of sodium chloride on activity, Activity (%) (esterase enzyme [1]; Concentration 5 %): 90.2 ± 2.1%
- The effect of sodium chloride on activity, Activity (%) (esterase enzyme [1]; Concentration 10 %): 79.2 ± 5%
- The effect of sodium chloride on activity, Activity (%) (esterase enzyme [1]; Concentration 15 %): 52 ± 5.3%
- The effect of sodium chloride on activity, Activity (%) (esterase enzyme [1]; Concentration 20 %): 39.2 ± 6.3%
- The effect of sodium chloride on stability, Activity (%) (esterase enzyme [2]; Concentration 10.0 %): 100 ± 4.8%
- The effect of sodium chloride on stability, Activity (%) (esterase enzyme [2]; Concentration 15.0 %): 99 ± 1.8%
- The effect of sodium chloride on stability, Activity (%) (esterase enzyme [2]; Concentration 20.0 %): 102.7 ± 1%
- The effect of sodium chloride on stability, Activity (%) (esterase enzyme [2]; Concentration 25.0 %): 101.4 ± 4.5%

B1: enzyme: novel esterase (SEQ ID NO: 2, 260 amino acids) obtained by metagenomic method from the microflora of Ac1göl (protein)
chain: MTVDLNHLDTGGEGIPLVVIHGLLGSADNWRSHVKQWQQQCRVVAVDLRNHGRSPHADGMSYAAMAADLEALLDRLGIERAHLLGHSMGGKVAISVARLHPQRVASLIVADIAPQAYGHDHDAVFAGLRRVEQGQPGNRREADALLAEHVEERAVRLFLATNLERDDDGILRLRIGLDEIEGDYDAIMQAPAGEGSYDGPVLVLRGDRSPYVTDAMLPRLHQVLPQAQLVTLENAGHWLHAEQPEAFQAAVNDFLASLEA
modifications: Metagenomic Sequence
- temperature of best activity [3]: 30 °C
- Effect of temperature on activity, Activity (%) ([3]; reaction at 5 ° C.): 47% and 46.6 ± 6.1%
- Effect of temperature on activity, Activity (%) ([3]; reaction at 10 ° C.): 53.8 ± 7.4%
- Effect of temperature on activity, Activity (%) ([3]; reaction at 15 ° C.): 63% and 63.1 ± 5.1%
- Effect of temperature on activity, Activity (%) ([3]; reaction at 20 ° C.): 76.9 ± 4.4%
- Effect of temperature on activity, Activity (%) ([3]; reaction at 25 ° C.): 93.1 ± 6.3%
- Effect of temperature on activity, Activity (%) ([3]; reaction at 30 ° C.): 100 ± 4.8%
- Effect of temperature on activity, Activity (%) ([3]; reaction at 35 ° C.): 94.4 ± 1.5%
- Effect of temperature on activity, Activity (%) ([3]; reaction at 40 ° C.): 82.4 ± 2.8%
- Effect of temperature on activity, Activity (%) ([3]; reaction at 45 ° C.): 22.5 ± 0.8%
- Effect of temperature on activity, Activity (%) ([3]; reaction at 50 ° C.): 17.7 ± 0.3%
- Effect of temperature on activity, Activity (%) ([3]; reaction at 55 ° C.): 14.4 ± 4.5%
- Effect of temperature on activity, Activity (%) ([3]; reaction at 60 ° C.): 12.9 ± 2.9%
- Effect of temperature on activity, Activity (%) ([3]; reaction at 65 ° C.): 11.1 ± 4.2%
- Effect of temperature on activity, Activity (%) ([3]; reaction at 70 ° C.): 8.2 ± 0.8%
- temperature up to which the enzyme maintained the stability [4]: up to 55 °C
- pH value at which the enzyme worked best [5]: 9 pH
- The effect of pH on activity, Activity (%) ([5]; pH 6): 10.3 ± 4.1%
- The effect of pH on activity, Activity (%) ([5]; pH 7): 68.8 ± 8.2%
- The effect of pH on activity, Activity (%) ([5]; pH 8): 77.1 ± 6.8%
- The effect of pH on activity, Activity (%) ([5]; pH 8.5): 84 ± 5.2%
- The effect of pH on activity, Activity (%) ([5]; pH 9): 100 ± 1.3%
- The effect of pH on activity, Activity (%) ([5]; pH 9.5): 84.9 ± 1.5%
- The effect of pH on activity, Activity (%) ([5]; pH 10): 20 ± 8.1%
- pH up to which the enzyme maintained its stability [6]: ≤ 10 pH
